In patent publication US20250340623A1:

Biological target: human full-length alpha-synuclein (human) (UniProt P37840)
Assay: indirect ELISA on coated full-length alpha-synuclein, O.D. 405 nm

Syn1 (antibody)
EC50 (read off the curve): 6 ng/mL
